According to publication doi:10.1101/2020.09.17.302455:

Biological target: human plasma fibronectin (human)
Test: ELISA

B1: bone morphogenetic protein 2 (ligand)
chain: QAKHKQRKRLKSSCKRHPLYVDFSDVGWNDWIVAPPGYHAFYCHGECPFPLADHLNSTNHAIVQTLVNSVNSKIPKACCVPTELSAISMLYLDENEKVVLKNYQDMVVEGCGCR
percent of BMP2 absorbed: 70 to 80%
